According to article PMC4872087 (Nucleic Acids Research, 2016):
Values joined by “and” are separate entries in the source; they are usually repeats but may differ in a detail not shown here. Identical values can stand only once. Values belong to the molecule of their own block, whether it stands above or below them. Ends that are not written are not given here. Me3 = trimethyl (trimethylated lysine)

Key:
[1] = molecular target: Histone H3K4me3 (Homo sapiens) (UniProt P68431); experiment: ITC; conditions: cited from earlier work
His-Spindlin1(49–262) [2] = molecular target: T1, His-Spindlin1(49–262) (human, UniProt Q9Y657 49-262); experiment: fluorescence polarisation; FP displacement assay: 100 nM His-Spindlin1(49–262), 10 nM FL-H3K4me3, dilution series of unlabeled competitor; incubation 15, 30, 60 and 90 min (IC50 values in that order); 25°C; conditions: both partners purified
T1 construct: Spindlin1, human, amino acids 49-262; Modified pET15b with a minimal, non-cleavable hexahistidine tag; also called recombinant Spindlin1; source: E. coli BL21(DE3) codon plus, purified (Talon beads, gel filtration on superdex S75)

His-Spindlin1(49–262) [3] = molecular target: T1, His-Spindlin1(49–262); experiment: AlphaScreen or HTRF; AlphaLISA displacement assay: 15 nM His-Spindlin1(49–262), 30 nM biotin-H3(1–23)K4me3, dilution series of unlabeled competitor; incubation 15, 30, 60 and 90 min (IC50 values in that order); 25 mM Hepes pH 7.5, 100 mM NaCl, 1 mg/ml BSA, 0.05% CHAPS; 25°C; conditions: both partners purified
[4] = molecular target: T2, Spindlin1, expressed by HL-60 suspension cells (human (endogenous in HL-60), UniProt Q9Y657 1-262); experiment: cellular thermal shift assay (CETSA) on cell lysate; HL-60 cell lysate treated with 500 μM H3(1–12)K4me3 or, as control, H3(1–21)K4me0 at 37°C for 60 min; heated 3 min at a temperature gradient; soluble Spindlin1 by Western blot; apparent Tagg; conditions: one partner purified
T2 construct: Spindlin1, endogenous in HL-60 cells, detected by Western blot with an anti-Spindlin1 antibody; also called Spindlin1 (CETSA); source: endogenous, HL-60 cell lysate

His-JMJD2C(874–988) [5] = molecular target: T3, His-JMJD2C(874–988) (murine, UniProt Q8VCD7 874-988); experiment: fluorescence polarisation; FP displacement assay: 10 μM His-JMJD2C(874–988), 15 nM FL-H3K4me3, dilution series of unlabeled H3(1–12)K4me3; conditions: both partners purified
T3 construct: JMJD2C (lysine demethylase), murine, amino acids 874-988, double Tudor domain; Modified pET15b with a minimal, non-cleavable hexahistidine tag; also called JMJD2C-Td; JMJD2C-TD; source: E. coli BL21(DE3) codon plus, purified (Talon resin, gel filtration)
T3 sequence (looked up): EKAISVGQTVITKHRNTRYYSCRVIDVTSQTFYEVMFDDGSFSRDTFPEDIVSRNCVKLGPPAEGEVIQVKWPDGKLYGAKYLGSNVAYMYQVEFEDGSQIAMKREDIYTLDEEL

His-JMJD2C(874–988) [6] = molecular target: T3, His-JMJD2C(874–988); experiment: fluorescent thermal shift assay (FTSA); 0.4 mg/ml His-JMJD2C(874–988), 5x SYPRO Orange, dilution series of H3(1–12)K4me3; KD by regression of Tm against ligand concentration; conditions: both partners purified
His-Spindlin1(49–262) [7] = molecular target: T1, His-Spindlin1(49–262); experiment: fluorescent thermal shift assay (FTSA); 0.1 mg/ml His-Spindlin1(49–262), 5x SYPRO Orange, dilution series of H3(1–12)K4me3; 100 mM Hepes pH 7.5, 150 mM NaCl; KD by regression of Tm against ligand concentration; conditions: both partners purified
His-JMJD2C(874–988) [8] = molecular target: T3, His-JMJD2C(874–988); experiment: AlphaScreen or HTRF; AlphaLISA displacement assay with His-JMJD2C(874–988) and biotin-H3(1–23)K4me3 (methods: 300 nM and 25 nM; legend: 5 μM and 200 nM), dilution series of unlabeled H3(1–12)K4me3; beads 0.02 mg/ml; conditions: both partners purified
His-Spindlin1(49–262) [9] = molecular target: T1, His-Spindlin1(49–262); experiment: fluorescence polarisation; His-Spindlin1(49–262) 0.06 to 750 nM titrated against 10 nM FL-H3K4me3; 60 min at 25°C; corrected for unspecific binding with 10 μM unlabeled H3(1–12)K4me3; one-site binding fit; 25 mM Hepes pH 7.5, 100 mM NaCl, 1 mg/ml BSA, 0.05% CHAPS; conditions: both partners purified
His-JMJD2C(874–988) [10] = molecular target: T3, His-JMJD2C(874–988); experiment: fluorescence polarisation; KD determination of the binding of FL-H3K4me3 to JMJD2C-Td; same optimization route as for Spindlin1; conditions: both partners purified

T1 sequence (Q9Y657 49-262): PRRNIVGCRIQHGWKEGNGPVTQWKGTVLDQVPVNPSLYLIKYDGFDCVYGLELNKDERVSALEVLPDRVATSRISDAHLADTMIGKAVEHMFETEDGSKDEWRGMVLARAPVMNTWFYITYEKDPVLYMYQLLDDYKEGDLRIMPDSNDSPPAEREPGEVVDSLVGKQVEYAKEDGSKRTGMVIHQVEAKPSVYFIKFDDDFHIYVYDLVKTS
T2 sequence (Q9Y657 whole entry): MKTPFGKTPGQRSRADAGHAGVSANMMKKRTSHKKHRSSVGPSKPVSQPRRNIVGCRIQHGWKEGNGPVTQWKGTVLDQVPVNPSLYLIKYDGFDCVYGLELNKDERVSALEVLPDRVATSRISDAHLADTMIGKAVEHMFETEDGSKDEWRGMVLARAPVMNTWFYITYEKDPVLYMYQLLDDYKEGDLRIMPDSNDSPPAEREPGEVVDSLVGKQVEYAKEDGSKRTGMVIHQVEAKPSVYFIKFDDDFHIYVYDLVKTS

Molecule: Spindlin1 (from UniProt Q9Y657)
Kd [1]: 250 nM

IC50 (His-Spindlin1(49–262) [2]): 180 nM and 232 nM and 202 nM and 201 nM | IC50 (His-Spindlin1(49–262) [3]): 118 nM (3×) and 116 nM | IC50 (His-JMJD2C(874–988) [5]): 19100 ± 2100 nM | Kd (His-JMJD2C(874–988) [6]): 12500 nM and 13300 nM | Kd (His-Spindlin1(49–262) [7]): 380 nM | IC50 (His-JMJD2C(874–988) [8]): 4500 ± 200 nM
B1: H3(1–12)K4me3 (peptide)
peptide: ARTK(Me3)QTARKSTG
notes: histone H3, amino acids 1-12; Free N-terminus (H2N-) and free C-terminus (-COOH) as printed; also called unlabeled H3K4me3 peptide; unlabeled H3(1–12)K4me3; source: synthetic peptide, custom synthesized by Peptide Specialty Laboratories GmbH
ΔTagg (against lysate treated with H3(1–21)K4me0) [4]: 5.9 °C

Kd (His-Spindlin1(49–262) [9]): 31 nM | Kd (His-JMJD2C(874–988) [10]): 14500 ± 1900 nM
B2: FL-H3K4me3 (peptide)
peptide: ARTKQTARKSTGGK
modifications: trimethylated lysine at position 4; mixed isomers of 5-(and-6)-carboxyfluorescein coupled to K14 side chain
notes: histone H3, N-terminal tail; also called fluorescent probe; fluorescein labeled peptide derived from histone H3; source: synthetic peptide, custom synthesized by Peptide Specialty Laboratories GmbH
